Two substances from patent US20040254351A1 can be followed below.

This assay deals with G-CSF receptor. In words: cell-based or functional assay.

With “G-CSF[C17A] (from UniProt P09919 31-207) (ligand)”, the EC50/Neupogen (reporter activity in cells expressing the G-CSF receptor) (ratio to Neupogen) stood at 0.66.
Next, “Wild-type G-CSF (from UniProt P09919 31-207) (ligand)”: 0.38.
